{"source": "patent US20190375786A1", "about": "“STABLE PEPTIDES AND METHODS OF USE THEREOF” (Fred Hutchinson Cancer Research Center, priority 2016, published 2019)", "biological_target": "trypsin (Sus scrofa, UniProt P00761)", "sequence (P00761 9-231)": "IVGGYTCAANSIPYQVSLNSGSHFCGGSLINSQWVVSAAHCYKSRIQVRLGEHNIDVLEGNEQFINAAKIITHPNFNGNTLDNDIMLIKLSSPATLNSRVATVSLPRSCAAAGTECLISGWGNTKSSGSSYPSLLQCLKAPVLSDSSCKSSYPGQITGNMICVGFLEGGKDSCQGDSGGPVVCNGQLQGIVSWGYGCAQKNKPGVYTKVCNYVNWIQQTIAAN", "assay": "SDPR surface display protease resistance, anti-6xHis staining, trypsin", "type": "cell-based", "conditions": "HEK-293 cells, up to 40 μg/ml trypsin for 20 minutes", "procedure": "Soluble peptides were exposed to 500 U/mL porcine trypsin and analyzed by HPLC. Protease resistance was also assessed by using SDPR-displaying peptides. The SDPR vector is similar to the a surface display GFP FasL(SDGF) vector, but contains a C-terminal 6×His tag (SEQ ID NO: 180) and all basic or aromatic amino acid residues on the stalk removed. Protease resistance is then tested by incubation of cells displaying peptides with trypsin or chymotrypsin, followed by incubation in 10 mM DTT, and staining with an anti-6×His fluorophore-labeled antibody (“6×His” disclosed as SEQ ID NO: 180). If peptides are uncleaved, they retain the His tag and are stained with by the antibody. A control protease-sensitive knottin peptide (SK) was used as a positive control. Cells displaying peptides were treated with up to 40 μg/ml trypsin or chymotrypsin.\nTo determine the impact of protease treatment or reducing condition on the function of the peptides, i.e., binding activity, various binding or functional assays can be performed. […] After treatment with the protease and reducing agent, any linearized peptide product or degradation product resulting from reduction and/or proteolysis by treatment with a protease can be detected or analyzed by staining against the 6×His tag (SEQ ID NO: 180). […]"}
{"sequence": "GSPDEYIERAKECCKKQDIQCCLRIFDESKDPNVMLICLFCW [SEQ ID NO: 43]", "values": [{"measurement": "resistance of surface-displayed peptide to cleavage by trypsin", "result": "partially resistant"}]}
